The text below walks through data of US20230220589A1.

B1: SEQ ID NO 28 (designed binder, not shown: small tags and cut ends; large carriers)
chain: QVSVQPNFQQDKFLGRWFLAGMASNSSWMREKFAALSVAKFVVAPATDGGLNTTTTLLRKNQCETFTRLLQPAGSLGSYSSRSPHLGSTVSGSVVETDYDQYALLYEQGSKGPGEDGRKAWLGSRTQTPRAELKEKFTAFSKAQGFTEDTIVFLPQTDKCMTEQ
B2: SEQ ID NO 29 (designed binder, not shown: small tags and cut ends; large carriers)
chain: QVSVQPNFQQDKFLGRWFVAGVASNSSWMREKVAALSGAKVVVAPATDGGLNYTETWLRKNQCETWTGLLQPAGSLGSYSQRSPHGGSTNSLSVVETDYDQYALLYVQGSKGPGEDPRVAVLWSRTQTPRAELKEKFTAFSKAQGFTEDTIVFLPQTDKCMTEQ
B3: SEQ ID NO 47 (designed binder, not shown: small tags and cut ends; large carriers)
chain: TVPDRSEIAGKWYVVALASNTEFFLREKDNFKMAMARISFLGEDELKVSEAVPTPNGCFKAEFTGKKTSDDGEVYWSQTAKYKVEVLDTDYKSYAVIYATNVKDGRTVHAMNLYSRSPEVSPAATAIFRKLAGERNYTDEMVAMLPRQEECTVDEV
B4: SEQ ID NO 37 (designed binder, not shown: small tags and cut ends; large carriers)
chain: QDSTQNLIPAPPLISVPLQPGFWTERFQGRWFLVGLAGNAVQKERQSRRTMSSLILELQEDNSYNETWINVRGQGCRYRIGTVVPSSRPGQFTLGNIHSYPQIQSLDVQVADTDYDQFAMVFTQFTSENKQYFYVRLMGRTKGLSDELKERFVSFAKSLGLKDNNIVFSVPTDQCIDN
B5: SEQ ID NO 26 (designed binder, not shown: small tags and cut ends; large carriers)
chain: QVSVQPNFQQDKFLGRWFAAGYASNSSWRRERSAALSMAKVVVAPATDGGLNWTETILRKNQCETATNLLQPAGSLGSYSIRSPHAGSTSSMSVVETDYDQYALLYAQGSKGPGEDFRLAILLSRTQTPRAELKEKFTAFSKAQGFTEDTIVFLPQTDKCMTEQ
B6: SEQ ID NO 39 (designed binder, not shown: small tags and cut ends; large carriers)
chain: QVSVQPNFQQDKFLGRWFLAGLASNSSWAREKIAALSDAKFVVAPATDGGLNGTVTVLRKNQCETATGLLQPAGSLGSYSWRSPHDGSTLSLSVVETDYDQYALVYEQGSKGPGEDLRIAALWSRTQTPRAELKEKFTAFSKAQGFTEDTIVFLPQTDKCMTEQ
B7: SEQ ID NO 38 (designed binder, not shown: small tags and cut ends; large carriers)
chain: QVSVQPNFQQDKFLGRWFPAGFASNSSWDREKPAALSLAKMVVAPATDGGLNWTETYLRKNQCETTTHLLQPAGSLGSYSYRSPHFGSTRSLSVVETDYDQYALFYSQGSKGPGEDHRGAWLLSRTQTPRAELKEKFTAFSKAQGFTEDTIVFLPQTDKCMTEQ
B8: SEQ ID NO 46 (designed binder, not shown: small tags and cut ends; large carriers)
chain: TVPDRSEIAGKWYVVALASNTEFHLREKDNLKVAMARISFLGEDELKVSEAVPTPNGCMKHESTWKKTSDDGEVYRSRKAKQKVEVLDTDYKSYAVIYATRVKDGRTHHWMLLYSRSPEVSPAATAIFRKLAGERNYTDEMVAMLPRQEECTVDEV
B9: SEQ ID NO 24 (designed binder, not shown: small tags and cut ends; large carriers)
chain: QVSVQPNFQQDKFLGRWFYAGLASNSSWLREKCAALSSAKAVVAPATDGGLNVTETWLRKNQCETGTELLQPAGSLGSYSFRSPHRGSTLSLSVVETDYDQYALLYRQGSKGPGEDERRALLMSRTQTPRAELKEKFTAFSKAQGFTEDTIVFLPQTDKCMTEQ
B10: SEQ ID NO 22 (designed binder, not shown: small tags and cut ends; large carriers)
chain: QVSVQPNFQQDKFLGRWFTAGLASNSSWLREKFAALSHAKTVVAPATDGGLNLTVTVLRKNQCETSTLLLQPAGSLGSYSRRSPHVGSTGSVSVVETDYDQYALIYDQGSKGPGEDWRIAELVSRTQTPRAELKEKFTAFSKAQGFTEDTIVFLPQTDKCMTEQ
B11: SEQ ID NO 25 (designed binder, not shown: small tags and cut ends; large carriers)
chain: QVSVQPNFQQDKFLGRWFIAGLASNSSWVREKSAALSQAKVVVAPATDGGLNVTVTVLRKNQCETYTVLLQPAGSLGSYSSRSPHFGSTVSLSVVETDYDQYALWYAQGSKGPGEDMRHAELWSRTQTPRAELKEKFTAFSKAQGFTEDTIVFLPQTDKCMTEQ
B12: SEQ ID NO 43 (designed binder, not shown: small tags and cut ends; large carriers)
chain: TVPDRSEIAGKWYVVALASNTEFVLREKDWLKLAMARISFLGEDELKVSMTTPGPNGCTKWERTLKKTSDDGEVYSSPRAKEKVEVLDTDYKSYAVIYATAVKDGRTLHEMWLYSRSPEVSPAATAIFRKLAGERNYTDEMVAMLPRQEECTVDEV
B13: SEQ ID NO 30 (designed binder, not shown: small tags and cut ends; large carriers)
chain: QDSTQNLIPAPPLISVPLQPGFWTERFQGRWFNVGIAGNAVQKERQSRFTMLSLISELQEDNSYNWTLISVRGQGCRYRILTWVPSSRPGQFTLGNIHSYPQIQSLDVQVADTDYDQFAMVFAQGTSENKQYFEVILMGRTKGLSDELKERFVSFAKSLGLKDNNIVFSVPTDQCIDN
B14: SEQ ID NO 44 (designed binder, not shown: small tags and cut ends; large carriers)
chain: TVPDRSEIAGKWYVVALASNTEFFLREKDRIKTAMARISFLGEDELKVSLARPAPNGCHKAEWTFKKTSDDGEVYTSFLAKFKVEVLDTDYKSYAVIYATPVKDGRTRHEMLLYSRSPEVSPAATAIFRKLAGERNYTDEMVAMLPRQEECTVDEV
B15: SEQ ID NO 23 (designed binder, not shown: small tags and cut ends; large carriers)
chain: QVSVQPNFQQDKFLGRWFLAGAASNSSWLREKNAALSYAKLVVAPATDGGLNSTVTRLRKNQCETETRLLQPAGSLGSYSWRSPHLGSTLSLSVVETDYDQYALVYAQGSKGPGEDVRGAELLSRTQTPRAELKEKFTAFSKAQGFTEDTIVFLPQTDKCMTEQ
B16: SEQ ID NO 32 (designed binder, not shown: small tags and cut ends; large carriers)
chain: QDSTQNLIPAPPLISVPLQPGFWTERFQGRWFSVGMAGNAVQKERQSRFTMGSCIMELQEDNSYNLTFIGVRGQGCRYRILTWVPSSRPGQFTLGNIHSYPQIQSADVQVADTDYDQFAMVFWQTTSENKQYFAVELWGRTKGLSDELKERFVSFAKSLGLKDNNIVFSVPTDQCIDN
B17: SEQ ID NO 40 (designed binder, not shown: small tags and cut ends; large carriers)
chain: QVSVQPNFQQDKFLGRWFYAGLASNSSWIREKYAALSLAKSVVAPATDGGLNWTETSLRKNQCETGTVLLQPAGSLGSYSLRSPHHGSTISVSVVETDYDQYALVYRQGSKGPGEDSRRAILMSRTQTPRAELTEKFTAFSKAQGFTEDTIVFLPQTDKCMTEQ
B18: SEQ ID NO 36 (designed binder, not shown: small tags and cut ends; large carriers)
chain: QDSTQNLIPAPPLISVPLQPGFWTERFQGRWFIVGAAGNAVQKERQSRVTMGSVIWELQEDNSYNLTFISVRGQGCRYWIETWVPSSRPGQFTLGNIHSYPQIQSADVQVADTDYDQFAMVFVQYTSENKQYFMVRLLGRTKGLSDELKERFVSFAKSLGLKDNNIVFSVPTDQCIDN
B19: SEQ ID NO 41 (designed binder, not shown: small tags and cut ends; large carriers)
chain: QVSVQPNFQQDKFLGRWFYAGMASNSSWLREKSAALSAAKFVVAPATDGGLNFTETFLRKNQCETTTILLQPAGSLGSYSVRSPHVGSTVSISVVETDYDQYALFYVQGSKGPGEDNRMALLGSRTQTPRAELKEKFTAFSKAQGFTEDTIVFLPQTDKCMTEQ
B20: SEQ ID NO 52 (designed binder, not shown: small tags and cut ends; large carriers)
chain: QIPLCANLVPVPITNATLDRITGKWFIIASASRNEEYNKSVQQAQSTAFYITPNKTEDTIFLRRYQTRQNQCFYNSSYLNVQRENGTVSYYRGGRERVSHLLFLRDTKTLMIGSYLDDEKNWGLVFGADKPETTKEQLGEFYEALDCLRIPRSDVMYTDWKKDKCEPLEKQHEKERKQEEGES
B21: SEQ ID NO 55 (designed binder, not shown: small tags and cut ends; large carriers)
chain: QIPLCANLVPVPITNATLDRITGKWFRIASAFRNEEYKKSVQEVQTTSFYFTPNKTEDTIFARFYQTRQNQCFYNSSYLNVQRENGTVSLYSGGREAVLHLLFLRDTKTLMLGVYLDDEKNWGLSFYADKPETTKEQLGEFYEALDCLRIPRSDVMYTDWKKDKCEPLEKQHEKERKQEEGES
B22: SEQ ID NO 56 (designed binder, not shown: small tags and cut ends; large carriers)
chain: QIPLCANLVPVPITNATLDRITGKWFLIASAIRNEEYNKSVQAVQSTAFYWTPNKTEDTIFARYYQTRQNQCFYNSSYLNVQRENGTVSWYAGGREFVSHLLFLRYTKTLMWGGYLDDEKNWGLEFYADKPETTKEQLGEFYEALDCLRIPRSDVMYTDWKKDKCEPLEKQHEKERKQEEGES

One assay concerns the target M48-modified F NTAA target peptides (M48-F-P2-peptide). Description: Gini coefficient of P1 selectivity from multiplex encoding heatmap.
Molecule B1 registered a P1 score of 0.392. The molecule B2 yielded a P1 score of 0.189.

The next assay deals with M44-modified A NTAA target peptides (M44-A-P2-peptide). Described as above.
With B3, the P1 score was found to be 0.173.

B4: the P1 score came to 0.319.

The next assay has as its target M44-modified L NTAA target peptides (M44-L-P2-peptide). The assay is described as above.
For B5, the P1 score is 0.501.

Regarding B6, the P1 score turned out to be 0.286. Take B7: the P1 score is 0.403. In the case of B8, the P1 score was 0.225.

For B9, the P1 score is 0.452. Regarding B10, the P1 score stood at 0.418.

With B11, the P1 score is 0.478.

A further assay addresses M44-modified F NTAA target peptides (M44-F-P2-peptide). The description is as above.
B12: the P1 score was 0.408. B13 yielded a P1 score of 0.433.

For the molecule B14, the P1 score was 0.241. Regarding B15, the P1 score came to 0.387.

B16 returned a P1 score of 0.173.

Another assay addresses M44-modified I NTAA target peptides (M44-I-P2-peptide). Described as above.
In the case of B17, the P1 score was 0.357. Take B18: the P1 score is 0.326. B19 returned a P1 score of 0.323.

The target of the next assay is M48-modified F NTAA target peptides (M48-F-P2-peptide). Description: Gini coefficient of P2 tolerance from multiplex encoding heatmap.
As to B1, the P2 score is 0.318. As for B2, the P2 score worked out at 0.387.

The target in another assay is M44-modified A NTAA target peptides (M44-A-P2-peptide). The description is as above.
In turn, B3 registered a P2 score of 0.466.

With B4, the P2 score was 0.195.

Another assay addresses M44-modified L NTAA target peptides (M44-L-P2-peptide). The assay is described as above.
Turning to B5, the P2 score stood at 0.498. For the molecule B6, the P2 score stood at 0.426.

In turn, B7 returned a P2 score of 0.251.

B8 yielded a P2 score of 0.289. Turning to B9, the P2 score was 0.375. Same read-out and setting: the same measure for B10: 0.431; for B11: 0.543.

The next assay concerns the target M44-modified F NTAA target peptides (M44-F-P2-peptide). The assay is described as above.
Molecule B12 returned a P2 score of 0.359.

In turn, B13 returned a P2 score of 0.378. B14 gave a P2 score of 0.485. B15 showed a P2 score of 0.456. In turn, B16 returned a P2 score of 0.379.

Another assay has as its target M44-modified I NTAA target peptides (M44-I-P2-peptide). The assay is described as above.
The molecule B17 had a P2 score of 0.144.

In turn, B18 had a P2 score of 0.197. With B19, the P2 score was 0.217.

Another assay concerns the target M90-modified W NTAA target peptide. Kind of assay: affinity comparison between P1 residues (method not specified; BLI / encoding assay).
In the case of B20, the fold affinity over an otherwise identical peptide with a different P1 is more than 2 fold.

The next assay deals with M90-modified H NTAA target peptide. The description is as above.
In turn, B21 came in with a fold affinity over an otherwise identical peptide with a different P1 of 2 fold.

The target in a further assay is M90-modified M NTAA target peptide. Described as above.
Consider B22, for which the fold affinity over an otherwise identical peptide with a different P1 is more than 2 fold.
